In US20150299298A1 (TRELLIS BIOSCIENCE, published 2015) one finds OD, Affinity and Kd data, which are given here for 4 molecules.

Read-outs that look alike come from different tables or passages of the source.

By Kd is commonly meant a measure of binding affinity in units of concentration. A lower Kd goes with tighter binding.

The target of experiment [1] is IHF from Staphylococcus aureus (Staphylococcus aureus) (UniProt Q5HFV0). Kind of experiment: ELISA. On the technique in general: An ELISA detects its analyte on a solid surface through an enzyme-linked reagent.
For experiment [2], the target named is T1, IHF from Klebsiella pneumoniae (Klebsiella pneumoniae, UniProt A6TAI1 1-99).
T1 construct: also called IHF (Kp); K. pneumoniae
T1 sequence: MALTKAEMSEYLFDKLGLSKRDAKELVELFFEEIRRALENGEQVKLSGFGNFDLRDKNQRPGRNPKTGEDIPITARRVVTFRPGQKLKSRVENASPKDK
Kind of experiment: ELISA at pH 2.5.

The target in experiment [3] is T2, IHF from Pseudomonas aeruginosa (Pseudomonas aeruginosa, UniProt Q51472 2-100).
T2 construct: mature; also called IHF (Pa); P. aeruginosa; not shown: poly-histidine tag
T2 sequence: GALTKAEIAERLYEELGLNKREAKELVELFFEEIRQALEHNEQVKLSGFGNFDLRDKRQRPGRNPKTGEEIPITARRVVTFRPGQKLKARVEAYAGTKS
Kind of experiment: ELISA at pH 2.5.

Experiment [4] has as its target T3, IHF from Staphylococcus aureus (Staphylococcus aureus, UniProt Q5HFV0 1-90).
T3 construct: mature; not shown: poly-histidine tag
T3 sequence: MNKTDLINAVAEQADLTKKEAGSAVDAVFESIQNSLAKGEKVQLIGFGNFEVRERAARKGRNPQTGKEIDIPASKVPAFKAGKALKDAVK
Nature of the experiment: ELISA at pH 2.5.

Experiment [5] concerns the target T1, IHF from Klebsiella pneumoniae. Kind of experiment: ELISA at pH 3.5.
For experiment [6], the target named is T2, IHF from Pseudomonas aeruginosa. Kind of experiment: ELISA at pH 3.5.
In experiment [7] the target is T3, IHF from Staphylococcus aureus. Kind of experiment: ELISA at pH 3.5.
Experiment [8] addresses T1, IHF from Klebsiella pneumoniae. Nature of the experiment: ELISA at pH 4.5.
For experiment [9], the target named is T2, IHF from Pseudomonas aeruginosa. Kind of experiment: ELISA at pH 4.5.
In experiment [10] the target is T3, IHF from Staphylococcus aureus. Nature of the experiment: ELISA at pH 4.5.
The target of experiment [11] is T1, IHF from Klebsiella pneumoniae. Kind of experiment: ELISA at pH 5.5.
Experiment [12] addresses T2, IHF from Pseudomonas aeruginosa. Nature of the experiment: ELISA at pH 5.5.
In experiment [13] the target is T3, IHF from Staphylococcus aureus. Kind of experiment: ELISA at pH 5.5.
The target in experiment [14] is T1, IHF from Klebsiella pneumoniae. Kind of experiment: ELISA at pH 6.5.
The target in experiment [15] is T2, IHF from Pseudomonas aeruginosa. Nature of the experiment: ELISA at pH 6.5.
The target in experiment [16] is T3, IHF from Staphylococcus aureus. Nature of the experiment: ELISA at pH 6.5.
The target of experiment [17] is T1, IHF from Klebsiella pneumoniae. Nature of the experiment: ELISA at pH 7.5.
For experiment [18], the target named is T2, IHF from Pseudomonas aeruginosa. Nature of the experiment: ELISA at pH 7.5.
The target of experiment [19] is T3, IHF from Staphylococcus aureus. Nature of the experiment: ELISA at pH 7.5.
Experiment [20] shares this target. Nature of the experiment: ELISA on IHF from S. aureus (IHF-Sa ELISA), OD 450 nm against [mAb] nM.
For experiment [21] the target is unchanged. The description is as above. This is another data set of the same source.

B1: TRL1230 (antibody, V domains shown)
VH: QVQLVQSGGGLVKPGGSLRLSCGASGFNLSSYSMNWVRQAPGKGLEWVSSISSRSSYIYYADSVQGRFTISRDNAKNSLYLQMNSLRAEDTAIYYCARVSPSTYYYYGMDVWGQGTTVTVSS
VL: DIVLTQPSSVSVSPGQTARITCSGDELPKQYAYWYQQKPGQAPVLVIYKDNERPSGIPERFSGSSSGTTVTLTISGVQAEDEADYYCQSADSSGTYVVFGGGTKLTVL
B1: in experiment [1], the OD amounted to 0.1 OD.

B2: TRL1068 (antibody, V domains shown)
VH: QVQLVESGPGLVKPSETLSLTCRVSGDSNRPSYWSWIRQAPGKAMEWIGYVYDSGVTIYNPSLKGRVTISLDTSKTRFSLKLTSVIAADTAVYYCARERFDRTSYKSWWGQGTQVTVSS
VL: DIVLTQAPGTLSLSPGDRATLSCRASQRLGGTSLAWYQHRSGQAPRLILYGTSNRATDTPDRFSGSGSGTDFVLTISSLEPEDFAVYYCQQYGSPPYTFGQGTTLDIK
Regarding B2, the Affinity was 2.6 nM in experiment [2]; 2.1 nM in experiment [3]; 3.5 nM in experiment [4]; 3 nM in experiment [5]; 0.26 nM in [6]; 0.36 nM in experiment [7]. The Affinity in [8] came to 0.05 nM; in experiment [9], 9 pM; in experiment [10], 0.012 nM; in experiment [11], 9 pM; in experiment [12], 6 pM; in experiment [13], 0.012 nM. Moreover, the Affinity in experiment [14] worked out at 6 pM; in experiment [15], 5 pM; in experiment [16] it was 0.012 nM; in experiment [17], 6 pM; in [18], 5 pM; in experiment [19] it was 0.01 nM.

B3: TRL1337 (antibody, V domains shown)
VH: QVQLLESGPGLVKPSETPSLTCTVSGGSIRSYYWSWIRQPPGKGLEWIGYIYYSGSTNYNPSLKSRVTISVDMSKNQFSLKLSSVTAADTAMYYCARVYGGSGSYDFDYWGQGTLVTVSS
VL: DIVLTQSPSASGSPGQSVTISCTGTSSDVGGYNYVSWYQQLPGKAPKLMIYEVTKRPSGVPDRFSGSKSGNTASLTVSGLQAEDEADYYCSSFAGSNNHVVFGGGTKLTVL
For the molecule B3, the Kd in experiment [20] and in [21] was 6 nM throughout.

B4: TRL1338 (antibody, V domains shown)
VH: QLTLRESGPTLVKPTQTLTLTCTFSGFSLSTNGVGVGWIRQPPGKALEWLAIIYWDDDKRYSPSLKSRLTITKDTSKNQVVLTLTNMDPVDTGTYYCAHILGASNYWTGYLRYYFDYWGQGTLVTVST
VL: DIEMTQSPSVSVSPGQTARITCSGEPLAKQYAYWYQQKSGQAPVVVIYKDTERPSGIPERFSGSSSGTTVTLTISGVQAEDEADYHCESGDSSGTYPVFGGGTKLTVL
Regarding B4, the dissociation constant Kd in [20] and in [21] was 42 nM throughout.
